The values below are quoted from earlier work in paper PMC7593401.

The Kd is the equilibrium constant for the complex coming apart.

The target of this series is C3b (Homo sapiens) (UniProt P01024). Description: SPR.
Sequence of C3b (Homo sapiens) (P01024 23-667, chain 1 of 2): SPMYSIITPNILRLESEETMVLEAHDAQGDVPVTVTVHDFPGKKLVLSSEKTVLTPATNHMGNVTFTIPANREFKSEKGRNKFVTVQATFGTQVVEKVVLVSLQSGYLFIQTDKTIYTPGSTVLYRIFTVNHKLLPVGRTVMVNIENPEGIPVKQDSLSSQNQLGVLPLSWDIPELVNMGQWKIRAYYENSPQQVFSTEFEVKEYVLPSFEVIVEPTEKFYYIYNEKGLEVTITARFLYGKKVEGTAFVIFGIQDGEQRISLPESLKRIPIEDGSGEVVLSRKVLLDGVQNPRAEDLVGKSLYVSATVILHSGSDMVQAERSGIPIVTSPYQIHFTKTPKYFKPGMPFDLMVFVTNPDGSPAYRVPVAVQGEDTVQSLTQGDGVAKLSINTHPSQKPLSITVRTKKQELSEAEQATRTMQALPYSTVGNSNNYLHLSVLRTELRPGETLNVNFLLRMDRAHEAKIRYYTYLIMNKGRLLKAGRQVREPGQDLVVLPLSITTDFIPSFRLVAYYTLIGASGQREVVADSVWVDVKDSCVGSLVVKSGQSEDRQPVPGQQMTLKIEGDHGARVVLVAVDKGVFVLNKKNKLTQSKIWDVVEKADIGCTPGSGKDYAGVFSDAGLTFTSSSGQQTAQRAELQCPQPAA
Sequence of C3b (Homo sapiens) (P01024 749-1663, chain 2 of 2): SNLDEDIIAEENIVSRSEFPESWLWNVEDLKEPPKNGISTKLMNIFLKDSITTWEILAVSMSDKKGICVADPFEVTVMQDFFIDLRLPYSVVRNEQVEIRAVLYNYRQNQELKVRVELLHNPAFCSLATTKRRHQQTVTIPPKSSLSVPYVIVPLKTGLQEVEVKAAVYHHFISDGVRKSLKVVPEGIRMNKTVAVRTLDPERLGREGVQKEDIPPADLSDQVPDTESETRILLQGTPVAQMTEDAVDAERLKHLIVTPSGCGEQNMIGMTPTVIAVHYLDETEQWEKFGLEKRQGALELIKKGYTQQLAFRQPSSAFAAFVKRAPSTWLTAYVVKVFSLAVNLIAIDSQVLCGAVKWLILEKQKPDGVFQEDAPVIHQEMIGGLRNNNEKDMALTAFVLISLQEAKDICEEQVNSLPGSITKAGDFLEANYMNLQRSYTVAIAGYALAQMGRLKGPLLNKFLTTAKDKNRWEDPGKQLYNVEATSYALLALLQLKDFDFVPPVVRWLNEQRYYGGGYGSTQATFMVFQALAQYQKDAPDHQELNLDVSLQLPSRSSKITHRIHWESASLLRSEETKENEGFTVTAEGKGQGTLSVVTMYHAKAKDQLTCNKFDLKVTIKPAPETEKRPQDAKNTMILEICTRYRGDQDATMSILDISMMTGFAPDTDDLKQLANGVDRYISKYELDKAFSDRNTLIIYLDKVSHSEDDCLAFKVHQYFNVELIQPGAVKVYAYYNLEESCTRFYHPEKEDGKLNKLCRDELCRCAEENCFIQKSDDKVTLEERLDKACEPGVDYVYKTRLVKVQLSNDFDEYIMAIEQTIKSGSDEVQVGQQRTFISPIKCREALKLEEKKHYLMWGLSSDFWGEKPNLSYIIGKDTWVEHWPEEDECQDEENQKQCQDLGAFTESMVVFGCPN

Sequence of FHL-1 (P08603 19-1231): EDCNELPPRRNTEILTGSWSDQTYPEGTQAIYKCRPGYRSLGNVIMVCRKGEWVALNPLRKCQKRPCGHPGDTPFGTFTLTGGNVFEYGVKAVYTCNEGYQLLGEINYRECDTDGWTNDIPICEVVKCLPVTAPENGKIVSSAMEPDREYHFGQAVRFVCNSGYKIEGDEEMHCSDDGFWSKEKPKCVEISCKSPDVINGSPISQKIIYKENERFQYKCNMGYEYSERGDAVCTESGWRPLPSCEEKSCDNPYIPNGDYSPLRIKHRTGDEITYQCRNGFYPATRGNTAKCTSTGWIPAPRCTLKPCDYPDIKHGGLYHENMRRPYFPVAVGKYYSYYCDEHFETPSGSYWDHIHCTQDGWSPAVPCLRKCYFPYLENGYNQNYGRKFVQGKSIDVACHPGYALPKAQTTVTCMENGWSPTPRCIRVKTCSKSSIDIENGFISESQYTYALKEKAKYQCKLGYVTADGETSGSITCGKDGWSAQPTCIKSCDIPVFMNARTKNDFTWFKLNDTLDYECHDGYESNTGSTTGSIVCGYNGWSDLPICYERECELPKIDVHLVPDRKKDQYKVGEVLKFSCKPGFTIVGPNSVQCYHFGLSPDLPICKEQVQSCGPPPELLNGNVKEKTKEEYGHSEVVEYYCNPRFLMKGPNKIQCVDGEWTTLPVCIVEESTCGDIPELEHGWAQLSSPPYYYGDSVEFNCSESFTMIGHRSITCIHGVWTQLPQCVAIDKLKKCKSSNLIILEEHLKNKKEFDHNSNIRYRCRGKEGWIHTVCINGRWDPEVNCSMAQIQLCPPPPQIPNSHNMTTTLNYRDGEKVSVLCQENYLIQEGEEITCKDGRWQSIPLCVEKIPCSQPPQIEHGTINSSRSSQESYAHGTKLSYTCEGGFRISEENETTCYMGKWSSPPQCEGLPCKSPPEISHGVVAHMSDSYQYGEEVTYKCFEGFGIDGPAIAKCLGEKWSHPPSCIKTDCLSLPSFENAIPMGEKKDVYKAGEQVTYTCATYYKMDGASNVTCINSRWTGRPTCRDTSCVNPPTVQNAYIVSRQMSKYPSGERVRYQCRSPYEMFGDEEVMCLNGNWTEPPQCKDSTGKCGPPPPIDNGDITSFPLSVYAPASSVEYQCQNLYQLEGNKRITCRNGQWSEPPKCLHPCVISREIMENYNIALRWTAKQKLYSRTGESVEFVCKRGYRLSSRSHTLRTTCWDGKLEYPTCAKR
Sequence of Factor H (P08603 19-1231): as above

Turning to FHL-1 (from UniProt P08603), the dissociation constant (Kd) is 1000 nM.
In the case of Factor H (from UniProt P08603), the Kd was 600 nM.
